Results as given in patent publication US20140223606, “COMPOSITIONS AND METHODS COMPRISING SEQUENCES HAVING MEGANUCLEASE ACTIVITY” (PIONEER HI BRED INTERNATIONAL INC, published 2014).

T1: MHP14+(14) (artificial)
T1 chain: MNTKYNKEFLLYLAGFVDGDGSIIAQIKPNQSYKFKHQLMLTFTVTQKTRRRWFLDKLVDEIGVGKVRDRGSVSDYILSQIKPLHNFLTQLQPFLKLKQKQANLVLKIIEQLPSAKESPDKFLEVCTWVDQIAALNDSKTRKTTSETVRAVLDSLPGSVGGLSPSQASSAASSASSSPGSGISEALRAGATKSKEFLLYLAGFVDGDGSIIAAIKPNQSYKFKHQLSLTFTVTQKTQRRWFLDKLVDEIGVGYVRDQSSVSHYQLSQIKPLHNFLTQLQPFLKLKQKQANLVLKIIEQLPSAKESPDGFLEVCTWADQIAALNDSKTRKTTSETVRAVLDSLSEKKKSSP

T2: MHP14+(12) (artificial)
T2 chain: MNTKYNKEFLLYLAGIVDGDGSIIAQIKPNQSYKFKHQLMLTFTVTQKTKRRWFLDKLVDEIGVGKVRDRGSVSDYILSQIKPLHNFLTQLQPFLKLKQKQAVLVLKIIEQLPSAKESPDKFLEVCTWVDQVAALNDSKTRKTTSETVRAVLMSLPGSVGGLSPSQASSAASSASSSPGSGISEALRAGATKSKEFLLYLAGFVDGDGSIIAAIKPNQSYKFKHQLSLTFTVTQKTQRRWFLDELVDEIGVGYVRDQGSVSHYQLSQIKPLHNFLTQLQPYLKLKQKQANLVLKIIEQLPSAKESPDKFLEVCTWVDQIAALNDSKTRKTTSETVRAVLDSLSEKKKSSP

T3: MHP14+(06) (artificial)
T3 chain: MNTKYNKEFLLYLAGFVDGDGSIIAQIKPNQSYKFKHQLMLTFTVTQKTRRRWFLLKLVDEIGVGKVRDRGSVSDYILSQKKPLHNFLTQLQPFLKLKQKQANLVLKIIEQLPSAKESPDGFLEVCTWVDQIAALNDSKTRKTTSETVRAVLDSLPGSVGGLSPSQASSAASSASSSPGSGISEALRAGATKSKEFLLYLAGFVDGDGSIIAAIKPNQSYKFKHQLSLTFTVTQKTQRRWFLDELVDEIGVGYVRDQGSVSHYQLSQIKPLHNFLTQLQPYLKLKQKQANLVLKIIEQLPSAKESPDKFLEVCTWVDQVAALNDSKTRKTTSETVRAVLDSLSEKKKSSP

T4: LIG3-4(B36) (artificial)
T4 chain: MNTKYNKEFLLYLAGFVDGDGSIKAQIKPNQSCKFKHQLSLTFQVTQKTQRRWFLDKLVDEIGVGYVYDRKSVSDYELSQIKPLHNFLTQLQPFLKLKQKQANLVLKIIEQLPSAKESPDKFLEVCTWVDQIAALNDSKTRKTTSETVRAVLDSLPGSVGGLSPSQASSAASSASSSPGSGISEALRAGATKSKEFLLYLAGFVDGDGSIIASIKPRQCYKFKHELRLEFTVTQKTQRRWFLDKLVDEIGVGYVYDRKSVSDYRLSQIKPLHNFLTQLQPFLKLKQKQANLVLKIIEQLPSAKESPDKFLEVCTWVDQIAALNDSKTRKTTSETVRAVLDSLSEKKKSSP

T5: LIG3-4(B38) (artificial)
T5 chain: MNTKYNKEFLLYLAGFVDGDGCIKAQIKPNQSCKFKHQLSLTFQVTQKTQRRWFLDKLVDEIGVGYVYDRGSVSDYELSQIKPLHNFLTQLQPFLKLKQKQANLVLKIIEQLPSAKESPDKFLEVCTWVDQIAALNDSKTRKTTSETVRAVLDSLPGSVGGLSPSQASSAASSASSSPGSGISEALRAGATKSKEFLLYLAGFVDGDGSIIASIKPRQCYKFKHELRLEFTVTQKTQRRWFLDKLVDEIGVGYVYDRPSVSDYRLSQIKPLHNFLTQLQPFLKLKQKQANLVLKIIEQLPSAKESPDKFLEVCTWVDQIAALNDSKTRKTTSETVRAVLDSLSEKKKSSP


Key:
MHP14+(14) = molecular target: T1, MHP14+(14); assay: cell_activity; maize; yeast 37 C: 4; conditions: tags: SV40 NLS
MHP14+(12) = molecular target: T2, MHP14+(12); assay: cell_activity; maize; yeast 37 C: 4; conditions: tags: SV40 NLS
MHP14+(06) = molecular target: T3, MHP14+(06); assay: cell_activity; maize; yeast 37 C: 4; conditions: tags: SV40 NLS
LIG3-4(B36) = molecular target: T4, LIG3-4(B36); assay: cell_activity; yeast 30 C; 22 C: 0; conditions: tags: NLS, 6xHis
Procedure: (§1) A 3 mL culture of selective media (MP Biomedical) was inoculated with a single colony of the yeast screening strain and grown at 30° C. overnight. On the following day, a 50 ml YPD culture (MP Biomedical) was started with 2 ml of the overnight culture and grown at 30° C. overnight. On the following day, the cells were harvested by centrifugation at 4000 rpm. The cells were resuspended in 100 ml ice cold water and centrifuged again. The cells were then washed in 1.2 M sorbitol, followed by treatment with 2 ml of 10 mM Tris pH 8.0, 1 mM EDTA, 100 mM Lithium acetate, 10 mM DTT, 0.6M sorbitol for 30 minutes at 30° C. with shaking. The cells were recovered by centrifugation, washed in 40 ml 1.2M sorbitol and finally resuspended in 250 microliters of 1.2M sorbitol. 50 microliter aliquots were transferred to test tubes on ice. Up to 5 microliters of DNA (100-500 nanograms) were added. The suspension was transferred to a 0.2 cm electroporation cuvette, on ice. Electroporation was performed with a pulse charge at 1.5 kV, 200 ohms, 25 microF (pulse time of 5 milliseconds). 1 mL YPD media (MP Biomedical) was added and the cells were allowed to recover at 30° C. for 1-2 hr. The cells were centrifuged, resuspended in 100 uL 1M sorbitol and plated on selective media lacking leucine and containing 2% galactose. The resulting yeast colonies were incubated at various temperatures ranging from 22 to 37 degrees Celsius for 7-10 days. I-CreI and meganucleases derived from it have maximal activity at or above 37 degrees Celsius. Screening was performed at a range of temperatures from 22 to 37 degrees in order to observe increases in activity at lower temperatures which are relevant to certain biological systems (eg. plant cells, plant cell cultures, etc). At that time the red/white sectoring phenotype, indicative of meganuclease activity was observed. Colonies with increased white sectoring over the parental meganuclease (indicating colonies expressing a meganuclease with increased meganuclease activity), also referred to as “hits” and sometimes completely white, were isolated for further analysis.

LIG3-4(B38) = molecular target: T5, LIG3-4(B38); assay: cell_activity; yeast 30 C; 22 C: 0; conditions: tags: NLS, 6xHis
Procedure: as §1

| Binder | activity (MHP14+(14)) | activity (MHP14+(12)) | activity (MHP14+(06)) | activity (LIG3-4(B36)) [score 0-4] | activity (LIG3-4(B38)) [score 0-4] |
| --- | --- | --- | --- | --- | --- |
| MHP14 recognition site (dsDNA) DNA 1: CAAACAGATTCACGTCAGATTT DNA 2: AAATCTGACGTGAATCTGTTTG | 39 % target site mutation rate | 47 % target site mutation rate | 7 % target site mutation rate |  |  |
| LIG3-4 recognition site (dsDNA) DNA 1: ATATACCTCACACGTACGCGTA DNA 2: TACGCGTACGTGTGAGGTATAT |  |  |  | 4 | 4 |
